Key:
Assay in all cases: cell-based or functional assay
[1] = molecular target: HIV-1 AC10.0.29 envelope (Env) on Env.IMC.LucR virus (HIV-1 clade B)
[2] = molecular target: HIV-1 CNE20 envelope (Env) on Env.IMC.LucR virus (HIV-1 clade BC)
[3] = molecular target: HIV-1 DU422.1 envelope (Env) on Env.IMC.LucR virus (HIV-1 clade C)
[4] = molecular target: HIV-1 DU172.17 envelope (Env) on Env.IMC.LucR virus (HIV-1 clade C)
[5] = molecular target: HIV-1 REJO4541.67 envelope (Env) on Env.IMC.LucR virus (HIV-1 clade B)
[6] = molecular target: HIV-1 CAP45.2.00.G3 envelope (Env) on Env.IMC.LucR virus (HIV-1 clade C)
[7] = molecular target: HIV-1 X1632_S2_B10 envelope (Env) on Env.IMC.LucR virus (HIV-1 clade G)
[8] = molecular target: HIV-1 ZM233M.PB6 envelope (Env) on Env.IMC.LucR virus (HIV-1 clade C)
[9] = molecular target: HIV-1 WITO4160.33 envelope (Env) on Env.IMC.LucR virus (HIV-1 clade B)
[10] = molecular target: HIV-1 THRO4156.18 envelope (Env) on Env.IMC.LucR virus (HIV-1 clade B)

Row | Binder | IC50 of virus neutralization (TZM-BL, luciferase) [1] | IC50 of virus neutralization (TZM-BL, luciferase) [2] | IC50 of virus neutralization (TZM-BL, luciferase) [3] | IC50 of virus neutralization (TZM-BL, luciferase) [4] | IC50 of virus neutralization (TZM-BL, luciferase) [5] | IC50 of virus neutralization (TZM-BL, luciferase) [6] | IC50 of virus neutralization (TZM-BL, luciferase) [7] | IC50 of virus neutralization (TZM-BL, luciferase) [8] | IC50 of virus neutralization (TZM-BL, luciferase) [9] | IC50 of virus neutralization (TZM-BL, luciferase) [10]
1 | Germ17 (antibody, V domains shown) VH: QVDLVQSGAVVKKPGDSVRVSCEAQGYRFPDYIIHWIRRAPGQGPEWMGWMNPMGGQVNIPWKFQGRVSMTRDTSIETAYMDLRGLRSDDTAVYYCVRDRSNGSGKRFESSNWFLDLWGRGTLVTVSS VL: QSALTQPRSVSGSPGQSVTISCTGTHNLVSWCQHHPGKAPKLMIYDFNKRPSGVPDRFSGSGSGGTASLTISGLQAEDEAEYFCWAYEAFGGGTKLTVL | > 50 µg/mL | 0.081 µg/mL | > 50 µg/mL | 0.117 µg/mL | 0.033 µg/mL | 0.037 µg/mL | > 50 µg/mL |  |  | 
2 | Cd4bs_H53MS_H54GY (antibody, V domains shown) VH: ADLVQSGAVVKKPGDSVRISCEAQGYRFPDYIIHWIRRAPGQGPEWMGWMNPSYGQVNIPWKFQGRVSMTRDTSIETAFLDLRGLKSDDTAVYYCVRDRSNGSGKRFESSNWFLDLWGRGTAVTIQS VL: QSALTQPRSVSASPGQSVTISCTGTHNLVSWCQHQPGRAPKLLIYDFNKRPSGVPDRFSGSGSGGTASLTITGLQDDDDAEYFCWAYEAFGGGTKLTVL | 3 µg/mL | 0.047 µg/mL | 0.89 µg/mL | 0.273 µg/mL | 0.044 µg/mL | 0.03 µg/mL | 9.87 µg/mL | 0.096 µg/mL | 0.15 µg/mL | 
3 | Germ23 (antibody, V domains shown) VH: QVQLVQSGAEVKKPGASVKVSCEASGYRFPDYIIHWIRRAPGQGPEWMGWMNPMGGQVNIPWKFQGRVSMTRDTSIETAYMELRGLRSDDTAVYYCVRDRSNGSGKRFESSNWFLDLWGRGTLVTVSS VL: QSALTQPRSVSGSPGQSVTISCTGTHNLVSWCQHHPGKAPKLMIYDFNKRPSGVPDRFSGSGSGGTASLTISGLQAEDEAEYFCWAYEAFGGGTKLTVL | > 50 µg/mL | 0.066 µg/mL | > 50 µg/mL | 0.182 µg/mL | 0.037 µg/mL | 0.035 µg/mL | > 50 µg/mL |  |  | 
4 | CysCA (antibody, V domains shown) VH: ADLVQSGAVVKKPGDSVRISCEAQGYRFPDYIIHWIRRAPGQGPEWMGWMNPMGGQVNIPWKFQGRVSMTRDTSIETAFLDLRGLKSDDTAVYYCVRDRSNGSGKRFESSNWFLDLWGRGTAVTIQS VL: QSALTQPRSVSASPGQSVTISCTGTHNLVSWAQHQPGRAPKLLIYDFNKRPSGVPDRFSGSGSGGTASLTITGLQDDDDAEYFCWAYEAFGGGTKLTVL | > 50 µg/mL | 0.034 µg/mL | > 50 µg/mL | 0.169 µg/mL | ≤ 0.02 µg/mL | 0.035 µg/mL | > 50 µg/mL |  |  | 
5 | NglycoSA (antibody, V domains shown) VH: ADLVQSGAVVKKPGDSVRISCEAQGYRFPDYIIHWIRRAPGQGPEWMGWMNPMGGQVNIPWKFQGRVSMTRDTSIETAFLDLRGLKSDDTAVYYCVRDRSNGAGKRFESSNWFLDLWGRGTAVTIQS VL: QSALTQPRSVSASPGQSVTISCTGTHNLVSWCQHQPGRAPKLLIYDFNKRPSGVPDRFSGSGSGGTASLTITGLQDDDDAEYFCWAYEAFGGGTKLTVL | > 50 µg/mL | 0.05 µg/mL | > 50 µg/mL | 0.11 µg/mL | 0.04 µg/mL | 0.037 µg/mL | > 50 µg/mL | 0.151 µg/mL | 0.179 µg/mL | 0.929 µg/mL
6 | Hydro2 (antibody, V domains shown) VH: ADLVQSGAVVKKPGDSVRISCEAQGYRFPDYIIHWIRRAPGQGPEWMGWMNPMGGQVNIPQKFQGRVSMTRDTSIETAFLDLRGLKSDDTAVYYCVRDRSNGSGKRFESSNWFLDLWGRGTAVTIQS VL: QSALTQPRSVSASPGQSVTISCTGTHNLVSWCQHQPGRAPKLLIYDFNKRPSGVPDRFSGSGSGGTASLTITGLQDDDDAEYFCWAYENFGGGTKLTVL | > 50 µg/mL | 0.049 µg/mL | > 50 µg/mL | 0.131 µg/mL | ≤ 0.02 µg/mL | 0.039 µg/mL | > 50 µg/mL |  |  | 
7 | Germ12 (antibody, V domains shown) VH: QVDLVQSGAVVKKPGDSVRVSCEAQGYRFPDYIIHWIRRAPGQGPEWMGWMNPMGGQVNIPWKFQGRVSMTRDTSIETAYMDLRGLRSDDTAVYYCVRDRSNGSGKRFESSNWFLDLWGRGTLVTVSS VL: QSALTQPRSVSGSPGQSVTISCTGTHNLVSWCQHQPGRAPKLLIYDFNKRPSGVPDRFSGSGSGGTASLTISGLQDEDDAEYFCWAYEAFGGGTKLTVL | > 50 µg/mL | 0.244 µg/mL | > 50 µg/mL | 0.267 µg/mL | 0.092 µg/mL | 0.063 µg/mL | > 50 µg/mL |  |  | 
8 | CysCV (antibody, V domains shown) VH: ADLVQSGAVVKKPGDSVRISCEAQGYRFPDYIIHWIRRAPGQGPEWMGWMNPMGGQVNIPWKFQGRVSMTRDTSIETAFLDLRGLKSDDTAVYYCVRDRSNGSGKRFESSNWFLDLWGRGTAVTIQS VL: QSALTQPRSVSASPGQSVTISCTGTHNLVSWVQHQPGRAPKLLIYDFNKRPSGVPDRFSGSGSGGTASLTITGLQDDDDAEYFCWAYEAFGGGTKLTVL | > 50 µg/mL | 0.037 µg/mL | > 50 µg/mL | 0.102 µg/mL | ≤ 0.02 µg/mL | 0.035 µg/mL | > 50 µg/mL | 0.079 µg/mL | 0.186 µg/mL | 1.4 µg/mL
9 | Germ6 (antibody, V domains shown) VH: ADLVQSGAVVKKPGDSVRVSCEAQGYRFPDYIIHWIRRAPGQGPEWMGWMNPMGGQVNIPWKFQGRVSMTRDTSIETAYLDLRGLKSDDTAVYYCVRDRSNGSGKRFESSNWFLDLWGRGTAVTVQS VL: QSALTQPRSVSGSPGQSVTISCTGTHNLVSWCQHQPGRAPKLLIYDFNKRPSGVPDRFSGSGSGGTASLTISGLQDEDDAEYFCWAYEAFGGGTKLTVL | > 50 µg/mL | 0.091 µg/mL | > 50 µg/mL | 0.102 µg/mL | 0.062 µg/mL | 0.135 µg/mL | > 50 µg/mL |  |  | 
10 | Germ23_NglycoSA_CysCV (antibody, V domains shown) VH: QVQLVQSGAEVKKPGASVKVSCEASGYRFPDYIIHWIRRAPGQGPEWMGWMNPMGGQVNIPWKFQGRVSMTRDTSIETAYMELRGLRSDDTAVYYCVRDRSNGAGKRFESSNWFLDLWGRGTLVTVSS VL: QSALTQPRSVSGSPGQSVTISCTGTHNLVSWVQHHPGKAPKLMIYDFNKRPSGVPDRFSGSGSGGTASLTISGLQAEDEAEYFCWAYEAFGGGTKLTVL | > 50 µg/mL | 0.064 µg/mL | > 50 µg/mL | 0.831 µg/mL | ≤ 0.02 µg/mL | 0.05 µg/mL | > 50 µg/mL |  |  | 
11 | Germ12_NglycoSA_CysCA (antibody, V domains shown) VH: QVDLVQSGAVVKKPGDSVRVSCEAQGYRFPDYIIHWIRRAPGQGPEWMGWMNPMGGQVNIPWKFQGRVSMTRDTSIETAYMDLRGLRSDDTAVYYCVRDRSNGAGKRFESSNWFLDLWGRGTLVTVSS VL: QSALTQPRSVSGSPGQSVTISCTGTHNLVSWAQHQPGRAPKLLIYDFNKRPSGVPDRFSGSGSGGTASLTISGLQDEDDAEYFCWAYEAFGGGTKLTVL | > 50 µg/mL | 0.062 µg/mL | > 50 µg/mL | 0.088 µg/mL | 0.028 µg/mL | 0.042 µg/mL | > 50 µg/mL |  |  | 
12 | Germ18 (antibody, V domains shown) VH: QVQLVQSGAEVKKPGASVKVSCEASGYRFPDYIIHWIRRAPGQGPEWMGWMNPMGGQVNIPWKFQGRVSMTRDTSIETAYMELRGLRSDDTAVYYCVRDRSNGSGKRFESSNWFLDLWGRGTLVTVSS VL: QSALTQPRSVSGSPGQSVTISCTGTHNLVSWCQHQPGRAPKLLIYDFNKRPSGVPDRFSGSGSGGTASLTISGLQDEDDAEYFCWAYEAFGGGTKLTVL | > 50 µg/mL | 0.081 µg/mL | > 50 µg/mL | 0.223 µg/mL | 0.039 µg/mL | 0.036 µg/mL | > 50 µg/mL |  |  | 
